Test results from the DeepSol protein solubility set.

test: soluble on expression in E. coli; label from the status in PepcDB or PDB records

Q: For “MAMQMQLEANADTSVEEESFGPQPISRLEQCGINANDVKKLEEAGFHTVEAVAYAPKKELINIKGISEAKADKILAEAAKLVPMGFTTATEFHQRRSEIIQITTGSKELDKLLQGGIETGSITEMFGEFRTGKTQICHTLAVTCQLPIDRGGGEGKAMYIDTEGTFRPERLLAVAERYGLSGSDVLDNVAYARAFNTDHQTQLLYQASAMMVESRYALLIVDSATALYRTDYSGRGELSARQMHLARFLRMLLRLADEFGVAVVITNQVVAQVDGAAMFAADPKKPIGGNIIAHASTTRLYLRKGRGETRICKIYDSPCLPEAEAMFAINADGVGDAKD”, which “soluble on expression in E. coli” value is on record?
A: soluble

Q: For “MAHHHHHHMKKRTPLVGKRSYFTSLYDTKTEKTKLISEMDDLYDHILTSNWNDSVHLVLNVSIWEGILHSIEARIKPYEQDEDILKKKKMINEMFDVLFILEDLRDHVNELLEQSSRASGLAGTYILASFKIENMVEHIEFLKAKYDELLLKYPLYKYQIDMVLGKGLALLRQRYTFEWRHMHDFFF”, which “soluble on expression in E. coli” value is on record?
A: not soluble

Q: Which “soluble on expression in E. coli” value does the source give for “MSKLGKQDVYYFEGLDDILIAMMTTKDAVGTEPAFGEVVRLPIATKLGIKGNGTALEKWASSKMFRRVSRETKHEIALDHVGIPIAVMDEIKGLIAQSGVTFGKNTAREFPYFAFGFIGNIENGGKKAVWYPKTQLSNVIDEEYTTAEDETKIDDVTANFVSTGLTYNNVMYSSFDSNRDSASIELFEKFIAQPVYDEEQWKKLAGPSRGGGSELEHHHHHH” here?
A: soluble

Q: For “MKLERVTVKNFRSHSDTVVEFKEGINLIIGQNGSGKSSLLDAILVGLYWPLRIKDIKKDEFTKVGARDTYIDLIFEKDGTKYRITRRFLKGYSSGEIHAMKRLVGNEWKHVTEPSSKAISAFMEKLIPYNIFLNAIYIRQGQIDAILESDEAREKVVREVLNLDKFETAYKKLSELKKTINNRIKEYRDILARTE”, which “soluble on expression in E. coli” value is on record?
A: soluble

Q: With “MLEQPYLDLAKKVLDEGHFKPDITHTGTYSIFGHQMRFDLSKGFPLLTTKKVPFGLIKSELLWFLHGDTNIRFLLQHRNHIWDEWAFEKWVKSDEYHGPDMTDFGHRSQKDPEFAAVYHEEMAKFDDRVLHDDAFAAKYGDLGLVYGSQWRAWHTSKGDTIDQLGDVIEQIKTHPYSRRLIVSAWNPEDVPTMALPPCHTLYQFYVNDGKLSLQLYQRSADIFLGVPFNIASYALLTHLVAHECGLEVGEFIHTFGDAHLYVNHLDQIKEQLSRTPRPAPTLQLNPDKHDIFDFDMKDIKLLNYDPYPAIKAPVAV” as the sequence, how does the “soluble on expression in E. coli” value read?
A: soluble

Q: Which “soluble on expression in E. coli” value does the source give for “MVLTGVTSKAIRKGDAEPPLSKGSFRVYNMRFCPWAERAMLYVAAKGIEAEVVNLNVTDKLEWYWTKHYQGKAPAVEHNGKVVIESGFIPEYLDDAFPETRILPTDPYEKVQQKLLADRLTAVAHAVPLLFAVMRDRTLKDEKQRKVFEVLKQAENLLANDFYAGSQPGYPDYLSFPFFEKIWWSASLDGVVDLPTIEFPGEEEYPKLTKWFQKMISSDVVQSVTQSLEHGAAFMNAYATHQELNYDLGL” here?
A: not soluble

Q: With “MSLSLKELLKDRLSEEELKLVRRSFEIIGDVVIIEIPDEIMHHSRDIVEAILKRHKHVKTVLRKVGEVDGVYRVARYEPIYGEKTETVVREHGCRFLVDPTKAYYSVKLSGERERIARLVGEGERVLVMFAGVGPYPIVIAKLARPREVVGVELNPHAVEYFRQNVRLNKVEGVVKVIEGDVEEVVPQLSGQFDRVVMPAPYSAENFIHLLRGKVRRGGFVHYYTFDSQNEEKILPEKVRRKFEDEGLEVEVVKMRRCGNFAPYVNRYVLDLRVLEGHHHHHH” as the sequence, how does the “soluble on expression in E. coli” value read?
A: soluble

Q: For “MSVKMKKCSREDLQTLQQLSIETFNDTFKEQNSPENMKAYLESAFNTEQLEKELSNMSSQFFFIYFDHEIAGYVKVNIDDAQSEEMGAESLEIERIYIKNSFQKHGLGKHLLNKAIEIALERNKKNIWLGVWEKNENAIAFYKKMGFVQTGAHSFYMGDEEQTDLIMAKTLILEHHHHHH”, which “soluble on expression in E. coli” value is on record?
A: soluble

Q: For “MYKRAEYHVITDRLKDRRRFIQVVMGARQIGKSTVVKQVLKDLDAPYQFFSADNVPTVNGAWISDCWAAVRSLKEAKEWESIILVIDEIQKIANWSEVVKKEWDDDTFHDRNIKVLLLGSSRVLLEKGLSESLAGRFEEIRMSHWSYQEMKDCFGFSLNQYLFYGGYPGAASLTDDDDRFSQYIQAAIIEATINKDILMGTPIGKPALLRRTFELGAAYSGELLSLNKMLGSLQDAGNTVTLAGYINLLDESGLLCGLQKFGYDMARRKASIPKLQVYNNALKMVYSPFTFEQAMLDRKSWGRIFESGIGAYLVSQAFVHRFEVFYWRERDDEVDFVLRKKGSVVAIEVKSNAEKRTDGLDKFSHSFKPQSAFILGDGGVRAEDFLSMDIRKLF”, which “soluble on expression in E. coli” value is on record?
A: not soluble

Q: Which “soluble on expression in E. coli” value does the source give for “MSEEHIAVTRFREYLRVNTEQPNPDYVACRDFLFKYADEVGIERKAVETAPGVYFVIMTIPGSQPELPSIMLYSHTDVVPTFREHWTHDPYSAFKDEDGNIFARGAQDTKCLGVQHVEAFRNLFAKGAKQWKRTIHVVWGPDEETGHINGMKGFVETNEFKKLNIGFSLDEGHASENGVYLTFYAERVTWWLKVTAPGNPGHGSQFMENTAMEKIERFLASARAFRNEQKELLEKNPTWALGDVTTLNVNILKGGVQFNVIPEKFEAYVDIRLTPNQDFGEIRAKLDQWVKDAGEGVTYEFSQHSDYKPVSPHTRDDPFWAAFEDSLKQENCEFTTEVCVGSTDSRFVRKAGVPAINFSPMINTPVRAHAHNEFLNEKVFLRGVEIFETLINNLGNV” here?
A: not soluble

Q: For “MSYLIRVQIPDEPGSLGRVAEAVGLIGGNISSVDVVEAFSNGTVTDDMVVELPAGTMADELITAAHEVEGVEVDSIRPFSGRVDRRGQ”, which “soluble on expression in E. coli” value is on record?
A: soluble

Q: For “MAHHHHHHMSSVSAAPQLSPKVIPGCSNTHSNSGLPTILSDLGTFAYQSACYGPQQLLACSSAVTNAGEVIFVYDMNSMLLTQSLSGHKAAVTALLWRPPPASYLQTGLFLWSGDARGALMYWDVVEGVALTSIQTPCHAAVQSLTLLTDEHLLVVTQEGAGYVFNSHLVDNTPLPPGRLLLETKQSTLLGNISRPSLVACSRLNDQHCCAVVLGDRLRILTAIQLDSGATAPVAKDLIYDSCDGAPTVVDVFFSDAQEEVLYFATRNTVGCYDWKLRLMLNESLLWLPDEVEFRRIFRSCSSGAAARTAASRSQESTASSSGDAAAAQVPLMYSFGSDQRLVAWHVTRHDRFTAVLTDVRGARINAKLCVNVVQSELDSSMFAVLFEDGSIVHWQYSPLARRWKLLDCWLAPVVRPVTFCPVGAHHCCVALESGHLALMDITHSMAVRRLTWSTLAERRLCCCAGTSGATLSGSCRTASNSTATTTKSR”, which “soluble on expression in E. coli” value is on record?
A: not soluble

Q: For “MGSDKIHHHHHHMTNETTTSILEYADTHLKFSMEDLFAYLHKKIGINKSSLAWYLFKLVNENKLVRTGRGMYARILKPSFAPQPAEEVKEVYDLLTTHFPFAKFCIYQGEIIAPLQHHLSPNRIIYVETDRGTAETVFHLLKDDYQDVYLRPNKEMIYRYVDMDSRVFIVKNLVSEAPLQHISGVPIPTLEKLLVDILRDVDFFYLQGSESERIIENAFNLYAINRSRLFRYAGRRKVKEELSTILENLNIV”, which “soluble on expression in E. coli” value is on record?
A: not soluble

Q: For “MSLSFLKHVQDCNTHDLSNFVRFVIEGRRVGWVRKALAQRLKAHGRVFDVTRDAVLLSASLRTPQSRTRAVADVVDRLADEGVVPAPRGELYRVNQSWGEPTLMLLDRAVVPTFGVRAYGVHLNGYVGAGADLHLWIGRRSPDKSVAPGKLDNMVAGGQPADLSLRQNLIKECAEEADLPEALARQAIPVGAITYCMESPAGIKPDTLFLYDLALPEDFRPHNTDGEMADFMLWPAAKVVEAVRTTEAFKFNVNLTVIDFAIRHGLIDPDNEGHHHHHH”, which “soluble on expression in E. coli” value is on record?
A: not soluble

Q: For “GPGSMCSGLTAFLVDFVQVVPGQTQTSFQTAAPEDSDPGVYDPNTRSWSGTDGLRYRVPLFPIPSERHTREKVRHVKILMDNCRHICISDELPATKEEKRFWASYRFIQYQLFLAPACVVTPPVYVFFKMFHDKLPHFLRGRTMPILTGLAVAEMWAEATYPSHQLLSMALRAKTPMGDAARAEWTRLQPIDIPFYIFSSYQFQQLFYAVPEEYLFGGDLASLCG”, which “soluble on expression in E. coli” value is on record?
A: soluble

Q: Which “soluble on expression in E. coli” value does the source give for “GAHMSVIKPEMKIKLCMRGTVNGHNFVIEGEGKGNPYEGTQILDLNVTEGAPLPFAYDILTTVFQYGNRAFTKYPADIQDYFKQTFPEGYHWERSMTYEDQGICTATSNISMRGDCFFYDIRFDGTNFPPNGPVMQKKTLKWEPSTEKMYVEDGVLKGDVNMRLLLEGGGHYRCDFKTTYKAKKEVRLPDAHKIDHRIEILKHDKDYNKVKLYENAVARYSMLPSQAK” here?
A: soluble
